Assay: cycloheximide chase, endogenous CK2α, HEK293T
Settings: glycan lost; control: untreated

B1: Casein kinase 2 alpha (CK2α): OSMI-4b (protein)
parent chain: MSGPVPSRARVYTDVNTHRPREYWDYESHVVEWGNQDDYQLVRKLGRGKYSEVFEAINITNNEKVVVKILKPVKKKKIKREIKILENLRGGPNIITLADIVKDPVSRTPALVFEHVNNTDFKQLYQTLTDYDIRFYMYEILKALDYCHSMGIMHRDVKPHNVMIDHEHRKLRLIDWGLAEFYHPGQEYNVRVASRYFKGPELLVDYQMYDYSLDMWSLGCMLASMIFRKEPFFHGHDNYDQLVRIAKVLGTEDLYDYIDKYNIELDPRFNDILGRHSRKRWERFVHSENQHLVSPEALDFLDKLLRYDHQSRLTAREAMEHPYFYTVVKDQARMGSSSMPGGSTPVSSANMMSGISSVPTPSPLGPLAGSPVIAAANPLGMPVPAAAGAQQ
degradation_or_half_life: no change
